assay: soluble on expression in E. coli; label from the status in PepcDB or PDB records

Row | Sequence | soluble on expression in E. coli
1 | GMTSPSIESGARERTRRAILDAAMLVLADHPTAALGDIAAAAGVGRSTVHRYYPERTDLLRALARHVHDLSNAAIERADPTSGPVDAALRRVVESQLDLGPIVLFVYYEPSILADPELAAYFDIGDEAIVEVLNRASTERPEYPPGWARRVFWALMQAGYEAAKDGMPRHQIVDAIMTSLTSGIITLPRT | soluble
2 | MGSDKIHHHHHHMKVLFTFGGIPHYLNAMLNRLQAKGVEITVVSPKKGNTTIGKGVKMVEGGTYKHLTTPEKKMFYGKSAFPALPEIIAEEKPDIVVVGWPYFLQVFFQPALRKAMKSCNAKLVIREIPFQTPPYGKIKEYFKANPMHDEGMRLLSKGIGFYLRQWITARIRKYCYAQAAGTLNYSTAAYDILPSYGVKKEQIHVTYNSTDTEALLKEKESVLASPSILPPCDRRLLHIGRLVKWKRVDLLIEAFRKVATDYPEAELVIVGDGPELDNLRQQANDLQLADSIRFIGAVYDPKTLGAYMNESSIYVLAGMGGLSINDAMTYGMPVLCAVCDSTERDLVMEGKNGYFFKDGDADSLAGRIREMFESPERCKEMGKESERMIREKINMETVSERYLKAFQEILRLTHLRDSGN | not soluble
3 | SKRKARRGAGMPDYETVALVLQGGGALGAYQAGVYEGLHAAGIRPNWLAGISIGGINAAIIAGAPVDERVGRLRGFWEAICRPTGFVGLPWGDAWAALFANAPFGFGSNQSNGQLAAFNALTRGQPGFFEPRFPPPYLVQGGGAAATSFYDTTPLLQTLRDYVDFDLLNRGDVRVSLGAVNVRTGNFAYFDSRETVIRPEHVMASGALPPGFPAIEIDGEFYWDGGLVSNTPLTKVLAVHPMRDTLAFQVDLWPARGPLPTSLEEVAERQKDIQYSSRTRIVTDTFRRQLKLRRSLQRVLDRLPPQVRSSRELAQIRREACTPLVNVVNLIYEANQFERHSKDYEFNTESMREHWRFGLADIERTLAQPGV | not soluble
4 | GAEVDQATKPAEAKYYIAGTITDATTGQELTTAKVTLGDKSVTSSFNEQVNYKAEGYALVVSADGYYPVKRQVYLNQVSDGQTSVATVNVALVSVEAAVIPPVVPPTDPETDINEGEATKVADKAVEVAKPSESTVTDMLAGTTATPEEKKALDETLEMAGGMKVGETTPEVLADGSILAITPVKFTNPIQDAPAMVPYFYNEGCELTGDVKEVAAPVTRADGAVAADIQKAFLSNAAKALNMNAGFVQKIGYTRISVLNGYSILGYTIKGQLVSKKLTFLISGKYYEGIVSYQKSVMIYPNYYSHDSHDSHDSHGFNPNAGGGSND | soluble
5 | MNREFVEAMQHLALERGVSVEEILKAFKRALRKAYIKRQKGYKKEEIDQGKGPEVDVYIDPNSGRIEMVKVRRVVEKVEDPDKEIALAEALQYDPEVQVGDEMEFPINPEELSRMAIQDLRQILTQRLKESERNRIYNEYKDKEGQVLTGVVTRVDNRGNVFVELGRGEAYLPRSEQIPTEKYHPGQRIKVYLKKVDKSAKGPSLLVSRAHEKLLEHLLKQEVPEIAEGIVEIKAIAREPGRRSKVAVTSHNPNVDPIGACIGHKGQRIQAVSAELGREKVDIILWSKDPKEFIRNALSPAQVGSIELDPEAKKARVKVTKDQHSLAIGTGGQNVRLASKLTGYDIHFEEAEISDLDEALRRAAEEEAEARERKAREEFEKLFRDLG | soluble
6 | MGHHHHHHSHMEPGEELEEEGSPGGREDGFTAEHLAAEAMAADMDPWLVFDARTTPATELDAWLAKYPPSQVTRYGDPGSPNSEPVGWIAVYGQGYSPNSGDVQGLQAAWEALQTSGRPITPGTLRQLAITHHVLSGKWLMHLAPGFKLDHAWAGIARAVVEGRLQVAKVSPRAKEGGRQVICVYTDDFTDRLGVLEADSAIRAAGIKCLLTYKPDVYTYLGIYRANRWHLCPTLYESRFQLGGSARGSRVLDRANNVELT | not soluble
7 | MKKGLTFSITSAALFFGMNHVASADQIHTVKEDAKLTDIAQTFATTTTEIQNLNHLQNRDYVQVGETIVLPDSDIVEVKDGDTIKAIAERHQMTMNQLYQLNPNLGEVIYPGQLVAVSEKGSAHLNNQLQQIFNSHEAVQPTAQINDDERNKAENNTIRNVRTSGNITPSATQTWQNNDYSASDRQQVSNTTANEQVTSNYQYSPVSHASNGSNYYDWGQCTYYAFDRRQQLGKSVGNLWGNANNWASAAQQSGYQVNNTPEVGAIFQSTAGNYGHVGVVESKNADGSIVVSEMNWQGVGQKSYRTIHNTGQYNYIHLEHHHHHH | not soluble
8 | GPGSMWVCGEAVLMRALNLLHARVRRCMRFSCRIPPQYCECPCRRMRVCPLRRDVSLIVLLFGLTPTTFSFSATSHDASRTKATRTHTHTHTPLFPARPMGSPLIAVIGPNPAFQKTLALDELRVDEVNRAATVHSYTGGKGTNFCRASACCKESPHFCRTTLHTFVGGKTGERVIDLLHQEGIAVYPVTVPAETRTCITCLDTQNSTMTELIEPSAAVPDDAAKDMDRALLKALEHAGGMAIMGSLPDGSSPDLYTRWTEMAAAAQKPVLIDAVKGIEASLKVPGVHSILKVNMRELNKLTGQSTPESAFEYAMQMWTVRVLAVTDGPRSAYIQERGQPLQVVHIPKVDGVVSPLGAGDTADAIFLAKYIHGTTPVEAFRLALAAASANCLQKEAGVFAQHEMRRIADGITIGSSRPHSSSNTRA | not soluble
9 | MPNDIENGTVIPPRRGVVWKIEEKELQGFAIPFPGADLSVMVRSQYYDATVRKSRPVHLSSYFQLDTRFKTYRLILWGAITRAFALASFTRRILLKYPDQCSFRMFKKSGPSAQQIAEASFTYWFFGYGYKETIPLDQQHERKVDRKVVATCKGPDLAYMAASGCVLSAALALVKDKNNLPKEGGVYTPAAAFGDSKIYDYLATFGINFHLESEYDL | not soluble
10 | MGHHHHHHSHMAKAITGVVCYACRIASTLLLYQELMRKGIRWLIELIKDDYNETVHKKTEVVITLDFCIRNIEKTVKVYEKLMKINLEAAELGEISDIHTKLLRLSSSQGTIETSLQDIDSRLSPGGSLADAWAHQEGTHPKDRNVEKLQVLLNCMTEIYYQFKKDKAERRLAYNEEQIHKFDKQKLYYHATKAMTHFTDECVKKYEAFLNKSEEWIRKMLHLRKQLLSLTNQCFDIEEEVSKYQEYTNELQETLPQKMFTASSGIKHTMTPIYPSSNTLVEMTLGMKKLKEEMEGVVKELAENNHILERFGSLTMDGGLRNVDCL | not soluble
11 | MAHHHHHHMNRWRPFSKVRHFSGLTKLTNVREHQDEIISCIEKVKVVNPLVHCITNRVTTEKVANSLLAFGSSPAMIDNPKEVEQFAEIASCTYFNLGLHTSQVENIHVLDKMRQEKKKEEFILVIDPIAVGATQYRTNLIKDILVKCKPNVIKGNVAEIFYLDKGEFFGKGVDSNSSSSHTPNDIIASARNVALKYNCAVVVTSKADIIVSPCSKFVAQINCDLKILTKITGSGCSVGALCAAATSVIPQNPFIACTAATLIYKLAAFKAYQKETGPGTLSHQIIDNIYFYSNHPHFMNLQLVDVYAVS | soluble
12 | MNNKLKTQAVEQLFQAILSLKDLDEAYDFFEDVCTINEILSLSQRFEVAKMLREHRTYLDIAEKTGASTATISRVNRSLNYGNDGYDRVFERLGMLEKESEDNK | soluble
13 | MDTTKTIAALFDFDGVIMDTETQYTVFWDEQGRKYLNEEDFGRRIKGQTLTQIYEKYFSDLPEAQQEITAGLNIYEKSMSYEYIPGVEAFIADLRKHGAKIAVVTSSNEEKMQNVYNAHPEFKGMVDRILTGEMFARSKPAPDCFLLGMEIFGATPENSYVFEDSFHGLQAGMTSGATVIGLATTNTREAITGKAHYIIDDFSEMTFEHLLALHR | not soluble
14 | MRGSHHHHHHGSKVRGKYDGPKINDYDKFYEDIWKKYVPQPVEVKQGSVYDYYDILEELGSGAFGVVHRCVEKATGRVFVAKFINTPYPLDKYTVKNEISIMNQLHHPKLINLHDAFEDKYEMVLILEFLSGGELFDRIAAEDYKMSEAEVINYMRQACEGLKHMHEHSIVHLDIKPENIMCETKKASSVKIIDFGLATKLNPDEIVKVTTATAEFAAPEIVDREPVGFYTDMWAIGVLGYVLLSGLSPFAGEDDLETLQNVKRCDWEFDEDAFSSVSPEAKDFIKNLLQKEPRKRLTVHDALEHPWLKGDHSNLTSRIPSSRYNKIRQKIKEKYADWPAPQPAIGRIANFSSLRKHRPQEYQIYDSYFDRKEAVPRFKLRPSLISS | soluble
15 | MSLEDVIEQLRELNEPVPVPLELPDEDLLVEIEEQLLINLPFELREFLMKVSDVIYGSLEPVTVSDPQSHTYLPEVAAVAWDQGMPRDMVPLCQVGDDYYAVDIEGQVLLWSSDSGELSDESWDSVWHWAKDVWLASEGHHHHHH | not soluble
16 | MKEFSIMIQGTISSWTEDTMSLLTVEKLGHTFGDRTLFKDVSMRLLAGEHVGLVGANGVGKSTFMNIITGQLIHDQGRVEWTPGTHYGYLDQHTVLTPGRTIRDVLADAFLPLFEKEKALNEVTEKMGTATPEELEELLEQMAEIQDALEAGGFYLLYMKIEEAARGLGIDAIGLDRDVSALSGGQRTKVLLAKLLLEQPEVLLLDEPTNYLDVEHIHWLTNYLKEYPHAFLLISHDTEFMNKCVDVIFHLEFTKMTRYTATYEKFLELAEINKNQHINAYEKQREFIKKQEDFIAKNKARYSTTGRAKSRQKQLDRMELIDRPETAIKPEFSFKESRASSRFVFEGENVEIGYTHPLLPKLSMTIERGEKIAIVGCNGVGKSTLLKTILGKIKPLSGKTSLGDFLEPAYFEQEVKADNITPIDDVWNTFPGLDQHQIRAMLAKCGLKNEHISRPLSQLSGGEQAKVRLCKLMGEESNWLLFDEPTNHLDVTAKAELKKAMKAYKGTILLVCHEPDFYEDWITKVWDVEEWSQNSK | not soluble
17 | MEKMYNVGKIVNTHGLIGEIRVIATTDFPEERFQVGNTVYLFEKNSKKPEKLIIRSHRKHKNFDLLMFEGFTGIHQVERMKEGVLKIKETQLTNLEENEFYFHEIIGCTVVTTDGEELGEITEILTPGANDVWVVKGADKKEKLIPYIADVVKEINIDDQKITIEVMEGLLD | soluble
18 | EKFVFEGKGDEVIGIEKPGDFVVVLDEVEHEKFVRKGDNLIIQHNIDLSEALCGFVRTISTLDGRTIFYRVLPGEVIAHADVKVIHNEGMPMRRASSDKGDLLVQFDVKFPDKINPDAAKKLADLL | not soluble
19 | GSHMRLSDYFPESSISVIHSAKDWQEAIDFSMVSLLDKNYISENYIQAIKDSTINNGPYYILAPGVAMPHARPECGALKTGMSLTLLEQGVYFPGNDEPIKLLIGLSAADADSHIGAIQALSELLCEEEILEQLLTASSEKQLADIISRG | soluble
20 | MNFGKSSWRTYEQGIQREWLLTNGIGGFASSTIIGSNTRRYHGLLVAALKPPVSRHLILSKIDECVTVDNESFNLFSYEVPGFIMHGYHHLERFEYDMLPKYIYRVKDVYVEKEICMVYGENTVVVVYHVINGTGRTNLRLTPLVNFRDYHFNSGRAYMSFERKFEKDVLTVRPSCYDIDIKLYSTDGKFTELDDTWFYNMDYAVERERGLASTEDHYIPGYYDIEIKPLEEKYITFVATVEKNVNHRDGLKIIEKEKKRLKKLASKAGYKDELAKKLVLAADKFIVHRESTNAKTVIAGYPWFTDWGRDTMISLAGLTLATRRFEDAKEILYTFSKYVKDGLIPNMFPDAGHEPPYNTVDAALWYFEAVNKYVNYTHDYKFIKENIYSGLKQIIEYYSKGTHFNIKADEDYLISAGDEHTQLTWMDAKVGDWVVTPRHGKAVEINALWYNALKIMSQLSKHFKEDAGLYDEMAEKVKKSFEEKFWNEEKKCLYDCLTPNYKDDKVRPNQILAVSLSYPVIEGEKAKSVVDIVFKELYTAYGLRSLSPKEKEYVGVYMGDQYRRDGAYHQGTVWTWPLGHFITAYLRVNNYSPEARKMALRFIEPFKDHLQDACLGSVSEIFDGNEPLIPRGCFAQAWSVAEILRAYVEDVMQLVQLKH | soluble
